{"source": "patent US20090191645A1", "about": "“COMPOUNDS AND METHODS FOR MODULATING INTEGRIN ACTIVITY” (Washington University in St. Louis, priority 2008, published 2009)", "key": {"C32 melanoma cells": {"system": "C32 melanoma cells", "experiment": "C32 cell adhesion and spreading on vitronectin", "type": "cell-based, human", "conditions": "Vn-coated wells", "procedure": "Cell Spreading Assay—Spreading of C32 cells on Vn was performed as described (31) in 24-well tissue culture plates coated with 0.5 μg/ml Vn and blocked with 1% BSA/PBS for 2 hrs at room temperature. C32 cells were plated in HBSS with 2 mM CaCl2 and 2 mM MgCl2 in the presence of 2 mM MnSO4, and indicated amounts of GRGDSP (SEQ ID NO: 19), P2483, P2484, or 4N1K. Cells were allowed to spread for 30 minutes at 37° C., after which the cells were fixed, stained, and photographed.\nAs an initial approach to testing the function of the putative clasp region of β3 integrins, synthetic peptides were used to mimic the α and β sides of the clasp. It was reasoned that αIIbβ3 is likely to be held in the off state more securely than αvβ3, and thus the αIIb clasp sequence was chosen for these experiments (Table 1). To evaluate the effects of the putative clasp peptides on αvβ3 activation in live cells, adhesion and spreading assays using C32 melanoma cells were performed. […] Not until αvβ3 is activated, e.g. via Mn^++ or CD47 stimulation, does αvβ3-dependent spreading occur (35). The assay was performed in Ca^++/Mg^++ which supports integrin activity, and we used Mn^++ activation of αvβ3 as a positive control (6). The putative clasp peptides were incubated with cells added to the Vn-coated wells and after 30 min at 37° cell attachment and spreading were assessed (FIG. 1)."}, "αIIbβ3 integrin": {"biological_target": "T1, αIIbβ3 integrin (Homo sapiens, UniProt P05106+P08514)", "T1 construct": "Platelets and megakaryocytes are the only cells to express αIIbβ3 integrin; endogenous in cells; host or cells: washed human platelets from a healthy donor", "experiment": "LIBS antibody binding to human platelets (flow cytometry)", "type": "cell-based", "conditions": "for LIBS binding to platelets (3 LIBS mAbs): platelets with PGE1 / kept on ice; for D3 LIBS antibody binding to platelets: 100 μM clasp peptide in the presence of RGD", "procedure": "Preparation of Fresh Platelets—Collection of human blood was performed under an approved protocol of the Washington University School of Medicine Human Studies Committee. 30 mL of blood was drawn from a healthy donor into 3% sodium citrate, and centrifuged at 200×g for 10 min. at room temp. to yield platelet-rich plasma (PRP). The PRP was treated with 1 μg/ml prostaglandin E1 (PGE-1) and centrifuged at 500×g for 5 min. The platelet pellet was resuspended in Tyrode's solution (137 mM NaCl, 2.7 mM KCl, 2 mM CaCl2, 1 mM MgCl2, 3.3 mM NaH2PO4, 5.5 mM glucose, 20 mM HEPES, pH 7.4 with 1 mg/ml BSA and 1 μg/ml PGE-1. The platelet suspension was stored on ice for 1 to 48 hr or treated as described below.\n(§1) Flow Cytometry—Binding of anti-β3 mAb AP3 and anti-LIBS mAbs LIBS1, LIBS6 and D3 was quantified using a Coulter EPICS flow cytometer. 10^6 cells were washed and resuspended in 100 μl of FACS buffer (1% BSA, 2 mM MgCl2, in PBS) and incubated on ice for 30 minutes. Cells were washed and resuspended in buffer (PBS+2 mM MgCl2 or 1 mM each CaCl2 and MgCl2) along with combinations of 0-1 mM GRGDSP (SEQ ID NO: 19) with 500 μM MnCl2, 100 μM P2483, 100 μM P2484, and 100 μM P2485 or control peptide. Cells were then incubated on ice for 30 minutes. Cells were washed and incubated in 100 μl of buffer (PBS+2 mM MgCl2) containing donkey anti-mouse IgG-FITC at a 1:100 dilution for an additional 30 min. After washing, the cells were diluted to 0.5 ml and analyzed by flow cytometry. Data was analyzed using WinMDI software.\nPlatelets and megakaryocytes are the only cells to express αIIbβ3 integrin, and thus platelets offer a unique system in which to test the effects of the clasp peptides on β3 integrin activation. They also provide the opportunity to compare the activation response to the clasp peptides of αIIbβ3 vs αvβ3. Several G protein coupled receptors (e.g. those for ADP, thromboxane and thrombin) on platelets can rapidly activate αIIbβ3 via inside-out signaling (2). To eliminate this route of activation platelets were incubated with PGE1, which elevates cyclic AMP levels via Gs, and in some experiments also used apyrase to block activation by leaked ADP (39). In addition, platelets were kept on ice for as long as 24 to 48 hours to ensure metabolic inactivity. While short-term exposure to cold can activate platelets, long term exposure makes platelets refractory to activation (40)."}, "αvβ3 integrin": {"biological_target": "T2, αvβ3 integrin (Homo sapiens, UniProt P05106+P06756)", "T2 construct": "Full length cDNA clones of human αv and β3 integrin subunits were provided by Dr. Scott Blystone; expressed in transfected cells; host or cells: human K562 erythroleukemia cells (ATCC CCL-243), stably expressing αvβ3", "T2 sequence (P06756 31-889 limits assumed)": "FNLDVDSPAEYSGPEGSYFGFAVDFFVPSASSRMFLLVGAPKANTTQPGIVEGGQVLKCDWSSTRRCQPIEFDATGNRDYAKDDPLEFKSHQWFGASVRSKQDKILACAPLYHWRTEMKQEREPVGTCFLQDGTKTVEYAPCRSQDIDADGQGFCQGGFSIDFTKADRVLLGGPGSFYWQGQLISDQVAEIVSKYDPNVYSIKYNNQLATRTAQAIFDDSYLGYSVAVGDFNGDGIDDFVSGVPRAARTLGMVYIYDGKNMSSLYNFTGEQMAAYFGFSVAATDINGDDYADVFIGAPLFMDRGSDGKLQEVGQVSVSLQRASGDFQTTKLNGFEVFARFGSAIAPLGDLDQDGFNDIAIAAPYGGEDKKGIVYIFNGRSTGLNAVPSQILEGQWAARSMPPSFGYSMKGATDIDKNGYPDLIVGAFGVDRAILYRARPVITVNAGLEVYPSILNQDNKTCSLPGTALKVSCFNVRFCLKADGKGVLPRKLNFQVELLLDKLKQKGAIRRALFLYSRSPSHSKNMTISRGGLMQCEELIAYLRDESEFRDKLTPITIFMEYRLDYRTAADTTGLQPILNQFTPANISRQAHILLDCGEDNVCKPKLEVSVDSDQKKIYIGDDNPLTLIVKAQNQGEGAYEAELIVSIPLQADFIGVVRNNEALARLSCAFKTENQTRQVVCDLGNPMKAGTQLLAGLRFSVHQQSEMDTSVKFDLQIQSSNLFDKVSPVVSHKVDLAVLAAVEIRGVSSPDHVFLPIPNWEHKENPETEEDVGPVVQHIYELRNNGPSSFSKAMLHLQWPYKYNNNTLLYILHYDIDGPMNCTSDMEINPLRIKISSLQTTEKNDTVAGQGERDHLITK", "T2 sequence (P06756 891-1048 limits assumed)": "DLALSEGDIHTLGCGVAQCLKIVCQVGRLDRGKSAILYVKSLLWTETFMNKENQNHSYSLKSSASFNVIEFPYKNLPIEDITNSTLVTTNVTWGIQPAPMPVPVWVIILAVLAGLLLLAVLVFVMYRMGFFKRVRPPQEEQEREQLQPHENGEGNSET", "T2 sequence (P05106 27-788)": "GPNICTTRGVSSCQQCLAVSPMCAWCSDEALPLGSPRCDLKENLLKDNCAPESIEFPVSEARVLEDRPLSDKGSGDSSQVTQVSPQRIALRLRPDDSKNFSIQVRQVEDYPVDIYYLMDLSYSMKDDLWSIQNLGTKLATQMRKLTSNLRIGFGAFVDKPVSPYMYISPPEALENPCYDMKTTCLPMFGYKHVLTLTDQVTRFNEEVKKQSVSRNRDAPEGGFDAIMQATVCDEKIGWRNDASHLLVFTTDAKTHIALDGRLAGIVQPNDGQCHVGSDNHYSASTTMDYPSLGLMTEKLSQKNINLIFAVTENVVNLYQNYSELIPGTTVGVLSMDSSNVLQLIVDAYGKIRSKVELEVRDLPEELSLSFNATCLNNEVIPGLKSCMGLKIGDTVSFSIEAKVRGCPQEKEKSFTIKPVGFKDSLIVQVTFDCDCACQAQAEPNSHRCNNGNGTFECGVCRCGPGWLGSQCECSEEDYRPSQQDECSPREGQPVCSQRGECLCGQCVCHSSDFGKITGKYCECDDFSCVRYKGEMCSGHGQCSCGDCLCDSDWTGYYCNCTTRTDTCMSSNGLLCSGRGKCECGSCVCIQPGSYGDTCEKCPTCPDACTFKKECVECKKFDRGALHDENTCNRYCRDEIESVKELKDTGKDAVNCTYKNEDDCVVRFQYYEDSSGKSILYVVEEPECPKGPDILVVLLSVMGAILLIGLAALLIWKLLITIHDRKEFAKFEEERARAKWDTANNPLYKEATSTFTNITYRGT", "experiment": "LIBS antibody binding to αvβ3 on K562 cells (flow cytometry)", "type": "cell-based", "conditions": "K562 cells expressing αvβ3; for LIBS1 antibody binding: 100 μM peptide, in the presence of 1 mM RGD peptide, absence of Mn++; for LIBS1, LIBS6 or D3 antibody binding (fluorescence): 1 mM GRGDSP vs LIBS antibody with no RGD peptide", "procedure": "as §1\nTo more directly monitor changes in integrin conformation, a series of antibodies (mAbs) were used that react with ligand-bound or activated states of β3 integrins. These LIBS mAbs used here recognize epitopes at three different sites within the stalk region of the β3 subunit that are masked in the “off” state and only become accessible when the integrin is “opened up” in the ligand-binding, activated conformation (37). When K562 cells transfected to express αvβ3 integrin were incubated with the LIBS1 or LIBS6 mAbs alone (dotted histograms in FIG. 2), little antibody binding above isotype control mAb or secondary mAb alone was detected. D3 mAb appeared to induce some activation of the integrin since its binding to αvβ3 (FIG. 2, dotted line) was several fold above that of controls. GRGDSP (SEQ ID NO: 19) peptide augments LIBS binding by stabilizing active conformations of the β3 integrin. […] The effect of the clasp peptides on the binding of each LIBS mAb was determined in the presence of 1 mM RGD peptide, but in the absence of Mn^++."}, "[1]": {"biological_target": "wild-type human αvβ3 integrin on cells (human, UniProt P06756 31-1048; P05106 27-788)", "sequence (P06756 31-1048, chain 1 of 2)": "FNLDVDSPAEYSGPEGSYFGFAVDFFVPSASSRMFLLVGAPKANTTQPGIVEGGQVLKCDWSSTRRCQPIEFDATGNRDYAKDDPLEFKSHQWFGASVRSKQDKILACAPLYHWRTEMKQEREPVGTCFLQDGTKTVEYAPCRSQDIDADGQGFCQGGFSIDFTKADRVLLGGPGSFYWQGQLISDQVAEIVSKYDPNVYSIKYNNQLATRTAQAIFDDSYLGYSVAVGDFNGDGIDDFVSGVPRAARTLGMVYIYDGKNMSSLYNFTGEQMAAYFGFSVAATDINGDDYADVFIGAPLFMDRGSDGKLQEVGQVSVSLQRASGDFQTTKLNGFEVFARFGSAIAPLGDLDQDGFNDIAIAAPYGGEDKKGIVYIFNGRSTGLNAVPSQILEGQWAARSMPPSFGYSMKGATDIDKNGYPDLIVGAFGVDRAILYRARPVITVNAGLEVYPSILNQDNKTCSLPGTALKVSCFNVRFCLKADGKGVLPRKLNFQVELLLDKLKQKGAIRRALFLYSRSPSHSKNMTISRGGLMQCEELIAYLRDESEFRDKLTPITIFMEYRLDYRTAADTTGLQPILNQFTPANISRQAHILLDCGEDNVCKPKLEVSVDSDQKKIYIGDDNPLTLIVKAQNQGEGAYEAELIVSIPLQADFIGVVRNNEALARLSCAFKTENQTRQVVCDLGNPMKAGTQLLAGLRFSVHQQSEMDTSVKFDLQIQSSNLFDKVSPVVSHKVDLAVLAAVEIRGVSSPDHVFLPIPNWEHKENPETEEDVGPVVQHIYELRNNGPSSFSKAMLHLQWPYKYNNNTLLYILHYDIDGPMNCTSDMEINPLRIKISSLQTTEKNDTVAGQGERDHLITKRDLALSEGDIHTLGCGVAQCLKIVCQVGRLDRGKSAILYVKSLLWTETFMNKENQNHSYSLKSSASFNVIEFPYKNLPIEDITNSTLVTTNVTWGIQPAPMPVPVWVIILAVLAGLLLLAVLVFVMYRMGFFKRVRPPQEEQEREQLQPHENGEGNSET", "sequence (P05106 27-788, chain 2 of 2)": "as the sequence (P05106 27-788) above", "experiment": "cell-based or functional assay"}, "[2]": {"conditions": "100 μM clasp peptide in the presence of 100 μM RGD, metabolically inactive human platelets"}, "[3]": {"conditions": "100 μM clasp peptide, 30 min at 37°"}}, "note": "Entries after “also recorded” stand apart in the source; their conditions may differ."}
{"molecule": "KRFYVVMWKK (listed as Homo sapiens) [4N1K]", "values": [{"measurement": "increase in number of spread cells", "setting": "C32 melanoma cells; 50 μM 4N1K", "result": "~10", "unit": "fold"}, {"measurement": "C32 cell adhesion increased", "setting": "C32 melanoma cells; 50 μM 4N1K, 30 min at 37°, no additions set at 100%", "result": 400, "unit": "%"}]}
{"molecule": "thrombin receptor activating peptide [TRAP]", "values": [{"measurement": "LIBS binding to platelets (3 LIBS mAbs)", "setting": "αIIbβ3 integrin; 10 μM TRAP", "result": "Neither of these agonists was able to increase LIBS binding"}]}
{"molecule": "TTRTDTC (listed as Homo sapiens) [P2483]", "values": [{"measurement": "LIBS1 binding to αIIbβ3", "setting": "αIIbβ3 integrin; [2]", "result": "unable to increase LIBS1 binding"}, {"measurement": "LIBS1 binding to αIIbβ3", "setting": "αIIbβ3 integrin; 100 μM clasp peptide in the presence of 100 μM RGD, metabolically inactive human platelets, listed as β3 clasp peptide", "result": "failed to increase LIBS1 binding"}, {"measurement": "D3 LIBS antibody binding to platelets", "setting": "αIIbβ3 integrin; human platelets", "result": "marginally stimulated D3 binding"}, {"measurement": "LIBS1 antibody binding", "setting": "αvβ3 integrin", "result": "dramatically increased"}, {"measurement": "LIBS1 antibody binding", "setting": "αvβ3 integrin; listed as 2483", "result": "greater than that promoted by RGD plus Mn^++"}, {"measurement": "C32 cell adhesion", "setting": "C32 melanoma cells; [3]", "result": "stimulated cell adhesion to an extent comparable to 4N1K"}]}
{"molecule": "GRGDSP", "values": [{"measurement": "LIBS1 binding to αIIbβ3", "setting": "αIIbβ3 integrin; 100 μM RGD, human platelets", "result": "sufficient to increase LIBS1 binding"}, {"measurement": "LIBS6 binding to αIIbβ3", "setting": "αIIbβ3 integrin; 100 μM RGD, human platelets", "result": "not increased"}, {"measurement": "LIBS1, LIBS6 or D3 antibody binding (fluorescence)", "setting": "αvβ3 integrin", "result": "increase in fluorescence"}, {"measurement": "LIBS1, LIBS6 or D3 antibody binding (fluorescence)", "setting": "αvβ3 integrin; listed as RGD peptide", "result": "increase in D3 binding"}, {"measurement": "C32 cell adhesion", "setting": "C32 melanoma cells; 0.5 mM GRGDSP", "result": "effectively reduced cell adhesion; also recorded: nearly eliminated"}, {"measurement": "C32 cell spreading", "setting": "C32 melanoma cells; 0.5 mM GRGDSP", "result": "nearly eliminated"}]}
{"molecule": "[Mn+2]", "note": "[Mn^++]", "values": [{"measurement": "LIBS1 binding shift", "setting": "αIIbβ3 integrin; 0.5 mM Mn++ added to 100 μM RGD, human platelets", "result": "further magnified"}, {"measurement": "LIBS antibody binding shift", "setting": "αvβ3 integrin; 0.5 mM Mn++ added to 1 mM GRGDSP", "result": "further augmented"}, {"measurement": "C32 cell adhesion to Vn", "setting": "C32 melanoma cells; 2 mM MnSO4", "result": "increased adhesion"}, {"measurement": "C32 cell spreading", "setting": "C32 melanoma cells; 2 mM MnSO4", "result": "enhanced spreading"}, {"measurement": "increase in number of spread cells", "setting": "C32 melanoma cells; 2 mM MnSO4", "result": "ca. 3 fold"}]}
{"molecule": "KMDASAAVS (listed as Homo sapiens) [control peptide]", "values": [{"measurement": "LIBS1 antibody binding", "setting": "αvβ3 integrin", "result": "did not enhance LIBS1 binding"}]}
{"molecule": "YMESRADRK (listed as Homo sapiens) [P2484]", "values": [{"measurement": "LIBS1 binding to αIIbβ3", "setting": "αIIbβ3 integrin; [2]", "result": "increased LIBS1 binding"}, {"measurement": "LIBS1 binding to αIIbβ3", "setting": "αIIbβ3 integrin; 100 μM clasp peptide in the presence of 100 μM RGD, metabolically inactive human platelets, listed as αIIb clasp peptide", "result": "increased binding well above that with RGD alone"}, {"measurement": "D3 LIBS antibody binding to platelets", "setting": "αIIbβ3 integrin; human platelets", "result": "large rightward shifts"}, {"measurement": "LIBS1 antibody binding", "setting": "αvβ3 integrin", "result": "dramatically increased"}, {"measurement": "LIBS1 antibody binding", "setting": "αvβ3 integrin; listed as 2484", "result": "greater than that promoted by RGD plus Mn^++"}, {"measurement": "C32 cell adhesion", "setting": "C32 melanoma cells; [3]", "result": "stimulated cell adhesion to an extent comparable to 4N1K"}]}
{"molecule": "Nc1ncnc2c1ncn2[C@@H]1O[C@H](COP(=O)(O)OP(=O)(O)O)[C@@H](O)[C@H]1O", "note": "[ADP]", "values": [{"measurement": "LIBS binding to platelets (3 LIBS mAbs)", "setting": "αIIbβ3 integrin; 50 μM ADP", "result": "Neither of these agonists was able to increase LIBS binding"}]}
{"molecule": "TTRTDTC", "note": "[P2483 (β3 integrin clasp peptide, residues 561-567, TTRTDTC)]", "values": [{"measurement": "C32 cell spreading on vitronectin", "setting": "[1]", "result": 9, "unit": "fold"}]}
{"molecule": "YMESRADRK", "note": "[P2484 (αIIb integrin clasp peptide, residues 313-321, YMESRADRK)]", "values": [{"measurement": "C32 cell spreading on vitronectin", "setting": "[1]", "result": 78, "unit": "fold"}]}
